The target of experiment [1] is T1, Latrophilin-3 ADHD-related variant R465S (Lphn3^R465S) (human).
T1 chain: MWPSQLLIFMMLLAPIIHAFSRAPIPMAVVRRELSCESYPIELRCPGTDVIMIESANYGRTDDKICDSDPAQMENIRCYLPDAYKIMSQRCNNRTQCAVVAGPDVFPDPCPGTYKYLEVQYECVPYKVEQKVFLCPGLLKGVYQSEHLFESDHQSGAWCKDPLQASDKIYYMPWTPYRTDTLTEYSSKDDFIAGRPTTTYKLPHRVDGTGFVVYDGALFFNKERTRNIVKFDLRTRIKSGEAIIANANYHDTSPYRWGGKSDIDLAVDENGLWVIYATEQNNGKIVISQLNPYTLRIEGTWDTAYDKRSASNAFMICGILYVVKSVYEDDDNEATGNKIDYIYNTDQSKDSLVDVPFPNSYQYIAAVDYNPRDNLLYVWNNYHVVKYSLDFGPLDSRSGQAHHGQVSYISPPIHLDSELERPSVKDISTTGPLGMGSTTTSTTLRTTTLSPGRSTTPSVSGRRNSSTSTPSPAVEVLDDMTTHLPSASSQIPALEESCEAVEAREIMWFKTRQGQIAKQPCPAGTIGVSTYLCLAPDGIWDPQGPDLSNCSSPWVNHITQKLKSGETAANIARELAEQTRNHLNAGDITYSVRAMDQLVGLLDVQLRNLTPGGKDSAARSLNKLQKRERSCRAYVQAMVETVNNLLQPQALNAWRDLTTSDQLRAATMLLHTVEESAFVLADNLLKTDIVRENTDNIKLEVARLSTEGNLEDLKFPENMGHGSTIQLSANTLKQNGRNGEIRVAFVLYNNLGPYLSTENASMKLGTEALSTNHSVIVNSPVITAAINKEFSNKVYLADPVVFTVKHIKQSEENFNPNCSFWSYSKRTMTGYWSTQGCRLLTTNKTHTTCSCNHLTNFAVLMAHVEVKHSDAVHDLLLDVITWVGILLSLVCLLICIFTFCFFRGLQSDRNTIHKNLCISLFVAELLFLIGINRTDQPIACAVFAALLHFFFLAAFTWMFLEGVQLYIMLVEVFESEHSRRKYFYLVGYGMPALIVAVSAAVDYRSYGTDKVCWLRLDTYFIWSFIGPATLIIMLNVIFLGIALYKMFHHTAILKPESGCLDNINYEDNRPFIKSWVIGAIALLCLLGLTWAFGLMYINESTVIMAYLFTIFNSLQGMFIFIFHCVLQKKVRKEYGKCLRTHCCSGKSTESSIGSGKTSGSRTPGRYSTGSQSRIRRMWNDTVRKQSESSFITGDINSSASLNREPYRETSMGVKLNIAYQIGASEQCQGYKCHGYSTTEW

For experiment [2], the target named is T2, Latrophilin-3 ADHD-related variant A247S (Lphn3^A247S) (human).
T2 chain: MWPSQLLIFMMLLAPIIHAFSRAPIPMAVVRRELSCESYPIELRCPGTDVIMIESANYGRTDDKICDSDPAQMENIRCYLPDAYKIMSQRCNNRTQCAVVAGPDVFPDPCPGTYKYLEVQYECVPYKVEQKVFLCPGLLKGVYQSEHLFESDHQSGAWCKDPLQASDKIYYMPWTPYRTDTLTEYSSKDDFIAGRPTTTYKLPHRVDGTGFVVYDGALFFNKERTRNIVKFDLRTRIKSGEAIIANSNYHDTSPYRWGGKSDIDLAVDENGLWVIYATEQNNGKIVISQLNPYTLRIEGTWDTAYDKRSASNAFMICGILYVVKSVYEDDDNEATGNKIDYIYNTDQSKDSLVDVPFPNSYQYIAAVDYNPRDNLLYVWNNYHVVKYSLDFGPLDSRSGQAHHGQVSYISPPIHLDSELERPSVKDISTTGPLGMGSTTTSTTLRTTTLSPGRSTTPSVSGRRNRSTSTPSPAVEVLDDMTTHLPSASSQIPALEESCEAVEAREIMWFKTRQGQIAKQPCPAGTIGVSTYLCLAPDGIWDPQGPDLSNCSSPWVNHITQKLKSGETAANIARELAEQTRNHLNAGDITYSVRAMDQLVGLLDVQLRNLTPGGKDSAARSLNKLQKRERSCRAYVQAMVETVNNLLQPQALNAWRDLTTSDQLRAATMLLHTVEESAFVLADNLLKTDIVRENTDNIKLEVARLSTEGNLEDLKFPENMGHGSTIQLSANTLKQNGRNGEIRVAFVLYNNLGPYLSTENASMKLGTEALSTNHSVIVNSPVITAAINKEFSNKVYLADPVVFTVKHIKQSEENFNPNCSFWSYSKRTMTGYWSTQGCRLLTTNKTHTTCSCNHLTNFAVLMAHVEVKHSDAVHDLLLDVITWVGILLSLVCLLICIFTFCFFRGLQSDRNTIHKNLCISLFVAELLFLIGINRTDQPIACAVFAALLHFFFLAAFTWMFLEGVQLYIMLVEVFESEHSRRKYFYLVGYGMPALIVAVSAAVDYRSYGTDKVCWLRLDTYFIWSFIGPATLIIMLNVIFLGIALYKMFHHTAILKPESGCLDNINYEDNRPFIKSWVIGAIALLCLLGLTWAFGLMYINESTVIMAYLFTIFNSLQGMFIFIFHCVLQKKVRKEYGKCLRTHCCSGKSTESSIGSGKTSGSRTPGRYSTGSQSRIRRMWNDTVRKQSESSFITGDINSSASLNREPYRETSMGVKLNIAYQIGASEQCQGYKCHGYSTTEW

B1: soluble FLRT3 extracellular domain fused to the constant fraction of human IgG (FLRT3^ECD-Fc) (Fc fusion)
chain: KSCPSVCRCDAGFIYCNDRFLTSIPTGIPEDATTLYLQNNQINNAGIPSDLKNLLKVERIYLYHNSLDEFPTNLPKYVKELHLQENNIRTITYDSLSKIPYLEELHLDDNSVSAVSIEEGAFRDSNYLRLLFLSRNHLSTIPWGLPRTIEELRLDDNRISTISSPSLQGLTSLKRLVLDGNLLNNHGLGDKVFFNLVNLTELSLVRNSLTAAPVNLPGTNLRKLYLQDNHINRVPPNAFSYLRQLYRLDMSNNNLSNLPQGIFDDLDNITQLILRNNPWYCGCKMKWVRDWLQSLPVKVNVRGLMCQAPEKVRGMAIKDLNAELFDCKDSGIVSTIQITTAIPNTVYPAQGQWPAPVTKQPDIKNPKLTKDHQTTGSPSRKTITITVKSVTSDTIHISWKLALPMTALRLSWLKLGHSPAFGSITETIVTGERSEYLVTALEPDSPYKVCMVPMETSNLYLFDETPVCIETETAPLRMYNPTTTLNREQEKEPYKNPNLP
modifications: HA/Flag epitopes left out; isoform assumed; signal peptide removed and GPS autoproteolysis expected
Regarding B1, the values for the Kd in experiment [1] and in experiment [2] were 1.02 nM and 1.22 nM, respectively.

(Values after PMC9135631 (2022).)
